A word on the Kd: it is the constant that tells how readily two partners part at equilibrium.

Assay [1] deals with HLA-A*11:01. Kind of assay: IEDB peptide-MHC binding, purified MHC/direct/fluorescence; filed as Kd, often an IC50 or EC50 that approximates it; ≥ and ≤ were set here for values at or beyond the usual limits of such assays.
In assay [2] the target is HLA-A*23:01. The description is as above.
The target of assay [3] is HLA-A*02:12. Described as above.
Assay [4] addresses HLA-A*29:02. The description is as above.
Assay [5] addresses HLA-A*02:19. The description is as above.
Assay [6] deals with HLA-A*02:03. The assay is described as above.
For assay [7], the target named is HLA-A*68:02. Described as above.
Assay [8] concerns the target HLA-A*02:11. The assay is described as above.
The target of assay [9] is HLA-A*03:01. Described as above.
In assay [10] the target is HLA-A*24:03. Described as above.
In assay [11] the target is HLA-A*02:16. The assay is described as above.
The target of assay [12] is HLA-B*46:01. Kind of assay: IEDB peptide-MHC binding, purified MHC/competitive/fluorescence; filed as Kd, often an IC50 or EC50 that approximates it; ≥ and ≤ were set here for values at or beyond the usual limits of such assays.
In assay [13] the target is HLA-B*57:01. The assay is described as above.
Assay [14] deals with HLA-A*02:01. The assay is described as above.
Assay [15] addresses HLA-B*39:01. The assay is described as above.
In assay [16] the target is HLA-B*51:01. The description is as above.
Assay [17] deals with HLA-A*69:01. Described as above.
Assay [18] addresses HLA-B*15:17. The assay is described as above.
Assay [19] concerns the target HLA-B*18:01. Described as above.
Assay [20] deals with HLA-A*26:01. The description is as above.
The target of assay [21] is HLA-B*27:03. The description is as above.
Assay [22] concerns the target HLA-A*24:03. The assay is described as above. The conditions noted are these: source organism: Orthohantavirus delgaditoense.
The target of assay [23] is HLA-A*02:03. The assay is described as above. The conditions noted are these: source organism: Human immunodeficiency virus 1.
The target of assay [24] is HLA-A*02:06. Described as above. Conditions: source organism: Human immunodeficiency virus 1.
The target of assay [25] is HLA-B*46:01. Kind of assay: IEDB peptide-MHC binding, purified MHC/direct/fluorescence; filed as Kd, often an IC50 or EC50 that approximates it; ≥ and ≤ were set here for values at or beyond the usual limits of such assays. The conditions noted are these: source organism: Giardia lamblia ATCC 50803.
The target of assay [26] is HLA-B*57:01. The description is as above. The conditions noted are these: source organism: Giardia lamblia ATCC 50803.
The target in assay [27] is HLA-A*02:01. The description is as above. Conditions: source organism: Giardia lamblia ATCC 50803.
The target in assay [28] is HLA-B*15:01. Described as above. Conditions: source organism: Giardia lamblia ATCC 50803.
The target of assay [29] is HLA-B*39:01. The assay is described as above. The conditions noted are these: source organism: Giardia lamblia ATCC 50803.
Assay [30] concerns the target HLA-B*27:03. The assay is described as above. The conditions noted are these: source organism: Giardia lamblia ATCC 50803.
The target in assay [31] is HLA-B*51:01. Described as above. The conditions noted are these: source organism: Giardia lamblia ATCC 50803.
The target in assay [32] is HLA-A*69:01. Described as above. The conditions noted are these: source organism: Giardia lamblia ATCC 50803.
For assay [33], the target named is HLA-B*15:17. The description is as above. Conditions: source organism: Giardia lamblia ATCC 50803.
Assay [34] has as its target HLA-B*18:01. The description is as above. The conditions noted are these: source organism: Giardia lamblia ATCC 50803.
For assay [35], the target named is HLA-A*26:01. The assay is described as above. Conditions: source organism: Giardia lamblia ATCC 50803.
In assay [36] the target is HLA-A*02:11. The assay is described as follows: IEDB peptide-MHC binding, purified MHC/competitive/fluorescence; filed as Kd, often an IC50 or EC50 that approximates it; ≥ and ≤ were set here for values at or beyond the usual limits of such assays. The conditions noted are these: source organism: Toxoplasma gondii.
Where [37] appears, read: source organism: Rickettsia bellii OSU 85-389.
Setting [38] is: source organism: Rickettsia bellii RML369-C.
Setting [39] is: source organism: Giardia lamblia ATCC 50803.
[40] abbreviates: source organism: Rio Mearim virus.
Where [41] appears, read: source organism: Orthohantavirus delgaditoense.
The mark [42] stands for this setting: source organism: Human immunodeficiency virus 1.

For AKIALAVYK, the Kd in [1] (setting [37]) is 0.427 µM; in assay [2] (setting [37]) it was no less than 20 µM; in assay [3] (setting [37]), no less than 20 µM; in [4] (setting [37]), no less than 20 µM; in [5] (setting [37]), no less than 20 µM; in assay [6] (setting [37]) it was no less than 20 µM. In addition, the equilibrium dissociation constant (Kd) in [7] (setting [37]), in [8] (setting [37]), in [9] (setting [37]), in assay [10] (setting [37]), in [11] (setting [37]) and in [12] (setting [38]) was no less than 20 µM in each case. Moreover, the dissociation constant Kd in assay [13] (setting [38]), in [14] (setting [38]), in assay [15] (setting [38]), in [16] (setting [38]), in [17] (setting [38]) and in assay [18] (setting [38]) was no less than 20 µM in each case. Besides, the Kd in [19] (setting [38]) and in assay [20] (setting [38]) was no less than 20 µM throughout.

On to APDGFYPFK, for which the Kd in [1] (setting [39]) was 0.248 µM; in [2] (setting [39]), no less than 20 µM; in assay [3] (setting [39]), no less than 20 µM; in assay [4] (setting [39]), no less than 20 µM; in assay [5] (setting [39]), no less than 20 µM; in assay [6] (setting [39]), no less than 20 µM. The Kd in [7] (setting [39]), in [8] (setting [39]), in assay [9] (setting [39]), in assay [10] (setting [39]), in assay [11] (setting [39]) and in assay [12] (setting [39]) was no less than 20 µM throughout. Also, the Kd in assay [13] (setting [39]), in assay [14] (setting [39]), in assay [15] (setting [39]), in assay [21] (setting [39]), in [16] (setting [39]) and in assay [17] (setting [39]) was no less than 20 µM throughout. In addition, the Kd in assay [18] (setting [39]), in assay [19] (setting [39]) and in assay [20] (setting [39]) was no less than 20 µM each time.

With DWMERIEDF, the Kd in assay [2] (setting [40]), in assay [3] (setting [40]), in assay [4] (setting [40]), in [5] (setting [40]), in [6] (setting [40]) and in assay [7] (setting [40]) was no less than 20 µM throughout. The Kd in assay [8] (setting [40]), in assay [9] (setting [40]), in assay [11] (setting [40]), in [12] (setting [41]), in assay [13] (setting [41]) and in assay [14] (setting [41]) was no less than 20 µM in each case. Moreover, the Kd in [15] (setting [41]), in assay [21] (setting [41]), in assay [16] (setting [41]), in assay [22], in assay [17] (setting [41]) and in [18] (setting [41]) was no less than 20 µM in each case. The Kd in assay [19] (setting [41]) and in assay [20] (setting [41]) was no less than 20 µM in each case.

As to LNTVATLY, the Kd in [14] (setting [42]) was 0.0559 µM; in [23], 0.291 µM; in assay [24], 0.0564 µM; in assay [15] (setting [42]) it was no less than 20 µM; in [18] (setting [42]), 2.75 µM.

Consider MHYGYNRAN, for which the Kd in assay [25], in [26], in assay [2] (setting [39]), in [3] (setting [39]), in assay [27] and in assay [4] (setting [39]) was no less than 20 µM each time. The Kd in assay [28], in assay [5] (setting [39]), in [6] (setting [39]), in assay [29], in assay [30] and in assay [7] (setting [39]) was no less than 20 µM throughout. The Kd in [8] (setting [39]), in [31], in assay [9] (setting [39]), in assay [10] (setting [39]), in assay [11] (setting [39]) and in [32] was no less than 20 µM in each case. The Kd in assay [33], in assay [34] and in assay [35] was no less than 20 µM in each case.

As for SVVEENTMA, the results for the Kd in [14] (source organism: Toxoplasma gondii) and in [36] were no less than 20 µM and 0.183 µM, respectively.

The values are drawn from the Immune Epitope Database (IEDB).
